The results in this text go back to patent publication US20040086512A1 (THOMAS JEFFERSON UNIVERSITY, published 2004).

This experiment deals with T1, GST-Vif fusion protein (HIV-1 (HIV-1NL4-3), UniProt P12504 1-192).
T1 construct: range 1-192; Expressed from pGEX in BL21 E. coli, held on glutathione-agarose beads or coated on ELISA plates; also called purified HIV-1 Vif protein; not shown: glutathione-S-transferase encoded by the pGEX vector
In words: phage peptide display, phage ELISA on coated GST-Vif. On the technique in general: An ELISA detects its analyte on a solid surface through an enzyme-linked reagent.

T1 sequence (P12504 whole entry, the tested form may be a part): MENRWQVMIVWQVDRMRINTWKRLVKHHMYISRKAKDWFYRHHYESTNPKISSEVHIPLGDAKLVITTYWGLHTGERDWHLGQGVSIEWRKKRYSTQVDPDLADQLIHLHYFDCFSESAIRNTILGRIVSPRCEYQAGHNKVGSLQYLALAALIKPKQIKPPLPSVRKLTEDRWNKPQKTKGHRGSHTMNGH

B1: VMI1 peptide SNFASITTPRPH (peptide)
peptide: SNFASITTPRPH
notes: 12-mer with PXP motif from the Ph.D.-12 library; also called ID; NO: 5
Consider B1, for which the binding result was “binds”.

B2: VMI14 peptide YPAPIKVLLPNS (peptide)
peptide: YPAPIKVLLPNS
notes: 12-mer with PXP motif from the Ph.D.-12 library; also called ID; NO: 18
In the case of B2, the binding result is given as “binds”.

B3: VMI4 peptide SLHWPVSHPPPP (peptide)
peptide: SLHWPVSHPPPP
notes: 12-mer with PXP motif from the Ph.D.-12 library; also called ID; NO: 8
As to B3, the binding result is on record as “binds”.

B4: VMI6 peptide WHSQRLSPVPPA (peptide)
peptide: WHSQRLSPVPPA
notes: 12-mer with PXP motif from the Ph.D.-12 library; also called ID; NO: 10
Take B4: the binding result is reported as “binds”.

B5: VMI2 peptide WPTNPTTVPVPS (peptide)
peptide: WPTNPTTVPVPS
notes: 12-mer with PXP motif from the Ph.D.-12 library; also called ID; NO: 6
On to B5, for which the binding result was “binds”.

B6: VMI9 peptide LPLPAPSFHRTT (peptide)
peptide: LPLPAPSFHRTT
notes: 12-mer with PXP motif; also called ID; NO: 13
Consider B6, for which the binding result is given as “binds”.

B7: VMI5 peptide SVSVGMKPSPRP (peptide)
peptide: SVSVGMKPSPRP
notes: 12-mer with PXP motif; also called ID; NO: 9
Turning to B7, the binding result is reported as “binds”.

B8: VMI16 peptide SPYPSWSTPAGR (peptide)
peptide: SPYPSWSTPAGR
notes: 12-mer with PXP motif from the Ph.D.-12 library; also called ID; NO: 20
On to B8, for which the binding result is reported as “binds”.

B9: VMI12 peptide TPLPTIRGDTGT (peptide)
peptide: TPLPTIRGDTGT
notes: 12-mer with PXP motif from the Ph.D.-12 library; also called ID; NO: 16
In the case of B9, the binding result is “binds”.

B10: VMI11 peptide TMTPPPTSVRGT (peptide)
peptide: TMTPPPTSVRGT
notes: 12-mer with PXP motif from the Ph.D.-12 library; also called ID; NO: 15
With B10, the binding result was “binds”.

B11: VMI13 peptide GPPPHHRDYHGP (peptide)
peptide: GPPPHHRDYHGP
notes: 12-mer with PXP motif from the Ph.D.-12 library; also called ID; NO: 17
Regarding B11, the binding result was “binds”.

B12: VMI8 peptide SEPHLPFPVLPH (peptide)
peptide: SEPHLPFPVLPH
notes: 12-mer with PXP motif from the Ph.D.-12 library; also called ID; NO: 12
As for B12, the binding result is listed as “binds”.

B13: VMI10 peptide YPLPHPMWSMLP (peptide)
peptide: YPLPHPMWSMLP
notes: 12-mer with PXP motif from the Ph.D.-12 library; also called ID; NO: 14
With B13, the binding result is “binds”.

B14: VMI7 peptide SNQGGSPLPRSV (peptide)
peptide: SNQGGSPLPRSV
notes: 12-mer with PXP motif; also called VM17; ID; NO: 11
On to B14, for which the binding result is “binds”.

B15: VMI15 peptide SPYPMALFPLHN (peptide)
peptide: SPYPMALFPLHN
notes: 12-mer with PXP motif from the Ph.D.-12 library; also called ID; NO: 19
On to B15, for which the binding result is “binds”.
